T1: recombinant Cad-11 EC1 human IgG1 fusion protein (R&D Systems Cat. No. 1790-CA-050) (human, UniProt P55287 54-617, limits assumed)
T1 construct: bought; also called recombinant human Cad-11 EC1; recombinant human Cad-11 fusion protein; not shown: human IgG1 part
T1 sequence: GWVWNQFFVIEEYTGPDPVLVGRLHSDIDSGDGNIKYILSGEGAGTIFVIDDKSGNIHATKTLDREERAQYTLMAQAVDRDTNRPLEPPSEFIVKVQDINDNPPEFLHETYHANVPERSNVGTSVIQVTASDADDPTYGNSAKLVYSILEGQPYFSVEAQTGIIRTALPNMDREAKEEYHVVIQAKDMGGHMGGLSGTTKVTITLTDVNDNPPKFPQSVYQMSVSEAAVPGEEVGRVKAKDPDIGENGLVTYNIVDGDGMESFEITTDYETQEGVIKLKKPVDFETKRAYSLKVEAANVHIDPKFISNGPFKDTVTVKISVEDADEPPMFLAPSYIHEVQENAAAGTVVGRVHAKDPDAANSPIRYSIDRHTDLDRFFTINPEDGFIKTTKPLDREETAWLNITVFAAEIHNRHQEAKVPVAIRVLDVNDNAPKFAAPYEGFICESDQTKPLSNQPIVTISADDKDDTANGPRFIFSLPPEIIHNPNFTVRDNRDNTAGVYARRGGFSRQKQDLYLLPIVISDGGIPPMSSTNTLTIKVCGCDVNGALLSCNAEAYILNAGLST


Columns and labels:
[1] = biological target: T1, recombinant Cad-11 EC1 human IgG1 …; test: competition ELISA against biotinylated SYN0012/H1M1 (competitor) on coated fusion protein; text says values are normalised to the IC50 of SYN0012
Method: (§1) The binding of the purified humanized composite variant antibodies (SDP011 to SDP151) to a recombinant Cad-11 EC1 human IgG1 fusion protein was assessed in a competition binding ELISA. A dilution series from 5 μg/ml to 0.0022 μg/ml of the humanized or control (SYN0012/H1M1) antibodies was premixed with a constant concentration of biotinylated murine anti-Cad-11 antibody, SYN0012/H1M1 (0.1 μg/ml, final concentration), before incubating for 1 hour at room temperature on a NUNC-IIMMUNO™ MAXISORP™ 96 well flat bottom microtitre plate (Fisher Cat. No. DIS-971-030J) pre-coated with 0.25 μg/ml recombinant human Cad-11 EC1 (R&D Systems Cat. No. 1790-CA-050) diluted in PBS. The binding of the biotinylated mAb was detected with streptavidin-HRP (Sigma Cat. No. 55512) and tetramethylbenzidine (TMB) substrate (Invitrogen Cat. No. 00-2023).
(§2) All of the humanized anti-Cad-11 antibodies efficiently competed with SYN0012 for binding to the Cad-11 fusion protein (FIGS. 38A to C). […] The curves were used to calculate IC50 values for each antibody and these were normalized to the IC50 of SYN0012, which was included on each ELISA plate so that comparisons between plates could be made (Table 3). The expression levels of each cell line and the calculated isoelectric point (pI) of each antibody are also shown (Table 3).
The relative IC50 was calculated by dividing the value for the test antibody by that of SYN0012. Antibody expression levels given are for static cultures in T flasks. PI are calculated.

[2] = biological target: T1, recombinant Cad-11 EC1 human IgG1 …; test: competition ELISA on coated recombinant human Cad-11 EC1 fusion protein against biotinylated SYN0012 (0.1 µg/ml)
Method: as §1, §2

Binder	IC50 [1]	IC50 (read off the curve) [2]
SDP081 humanized anti-Cad-11 EC1 antibody (Vκ2/VH3) (antibody, IgG4, V domains shown, humanized IgG4 (S241P), kappa) VH: EVQLVQSGAEVKKPGASVKISCKASGYSFTGYFMNWVRQAPGQGLEWIGRINPYTGDTFYNQKFKGRATLTVDKSTSTAYMELSSLRSEDTAVYYCGRLGSRYWYFDVWGQGTTVTVSS VL: DVLMTQTPLSSPVTLGQPASISCRSSQSIIHSNGNTYLEWYLQKPGQSPQLLIYKVSNRFSGVPDRFSGSGSGTDFTLKISRVEAEDVGVYYCFQGSHVPWTFGQGTKLEIK	0.42 µg/mL	–
SDP011 humanized anti-Cad-11 EC1 antibody (Vκ1/VH1) (antibody, IgG4, V domains shown, humanized IgG4 (S241P), kappa) VH: EVQLVQSGPELKKPGASVKISCKASGYSFTGYFMNWVKQAHGQGLEWIGRINPYTGDTFYNQKFKGRATLTVDKSSSTAYMELVSLSSEDSAVYYCGRLGSRYWYFDVWGQGTTVTVSS VL: DVLMTQTPLSSPVTLGQPASISCRSSQSIIHSNGNTYLEWYLQKPGQSPQLLIYKVSNRFSGVPDRFTGSGSGTDFTLKISRVEAEDVGVYYCFQGSHVPWTFGQGTKLEIK	0.91 µg/mL	~0.2 µg/mL
SDP021 humanized anti-Cad-11 EC1 antibody (Vκ1/VH2) (antibody, IgG4, V domains shown, humanized IgG4 (S241P), kappa) VH: EVQLVQSGAEVKKPGASVKISCKASGYSFTGYFMNWVKQAPGQGLEWIGRINPYTGDTFYNQKFKGRATLTVDKSTSTAYMELSSLRSEDTAVYYCGRLGSRYWYFDVWGQGTTVTVSS VL: DVLMTQTPLSSPVTLGQPASISCRSSQSIIHSNGNTYLEWYLQKPGQSPQLLIYKVSNRFSGVPDRFTGSGSGTDFTLKISRVEAEDVGVYYCFQGSHVPWTFGQGTKLEIK	0.67 µg/mL	~0.1 µg/mL
SDP031 humanized anti-Cad-11 EC1 antibody (Vκ1/VH3) (antibody, IgG4, V domains shown, humanized IgG4 (S241P), kappa) VH: EVQLVQSGAEVKKPGASVKISCKASGYSFTGYFMNWVRQAPGQGLEWIGRINPYTGDTFYNQKFKGRATLTVDKSTSTAYMELSSLRSEDTAVYYCGRLGSRYWYFDVWGQGTTVTVSS VL: DVLMTQTPLSSPVTLGQPASISCRSSQSIIHSNGNTYLEWYLQKPGQSPQLLIYKVSNRFSGVPDRFTGSGSGTDFTLKISRVEAEDVGVYYCFQGSHVPWTFGQGTKLEIK	0.84 µg/mL	~0.2 µg/mL
SDP041 humanized anti-Cad-11 EC1 antibody (Vκ1/VH4) (antibody, IgG4, V domains shown, humanized IgG4 (S241P), kappa) VH: EVQLVQSGAEVKKPGASVKVSCKASGYSFTGYFMNWVRQAPGQGLEWIGRINPYTGDTFYNQKFKGRATITVDKSTSTAYMELSSLRSEDTAVYYCGRLGSRYWYFDVWGQGTTVTVSS VL: DVLMTQTPLSSPVTLGQPASISCRSSQSIIHSNGNTYLEWYLQKPGQSPQLLIYKVSNRFSGVPDRFTGSGSGTDFTLKISRVEAEDVGVYYCFQGSHVPWTFGQGTKLEIK	0.65 µg/mL	~0.1 µg/mL
SDP101 humanized anti-Cad-11 EC1 antibody (Vκ2/VH5) (antibody, IgG4, V domains shown, humanized IgG4 (S241P), kappa) VH: EVQLVQSGAEVKKPGASVKVSCKASGYSFTGYFMNWVRQAPGQGLEWIGRINPYTGDTFYNQKFKGRVTITVDKSTSTAYMELSSLRSEDTAVYYCGRLGSRYWYFDVWGQGTTVTVSS VL: DVLMTQTPLSSPVTLGQPASISCRSSQSIIHSNGNTYLEWYLQKPGQSPQLLIYKVSNRFSGVPDRFSGSGSGTDFTLKISRVEAEDVGVYYCFQGSHVPWTFGQGTKLEIK	0.53 µg/mL	–
SDP091 humanized anti-Cad-11 EC1 antibody (Vκ2/VH4) (antibody, IgG4, V domains shown, humanized IgG4 (S241P), kappa) VH: EVQLVQSGAEVKKPGASVKVSCKASGYSFTGYFMNWVRQAPGQGLEWIGRINPYTGDTFYNQKFKGRATITVDKSTSTAYMELSSLRSEDTAVYYCGRLGSRYWYFDVWGQGTTVTVSS VL: DVLMTQTPLSSPVTLGQPASISCRSSQSIIHSNGNTYLEWYLQKPGQSPQLLIYKVSNRFSGVPDRFSGSGSGTDFTLKISRVEAEDVGVYYCFQGSHVPWTFGQGTKLEIK	0.57 µg/mL	–
